# According to PMC10720262 (2023):
# Changes are numbered by the printed parent chain.
# B1: CL-514716 (antibody, V domains shown)
# VH: QIQLVESGGGVVQPGRSLRLSCAASGFTFSTYGMHWVRQAPGKGLEWVAVIWYDGSNKYYADSVQGRFTISRDNSKNTLYLQMNSLRAEDTAIYYCTTVGPIPFDYWGQGTLVTVSS
# VL: DIVMTQTPLSSPVILGQPASISCRSSQSLVHSSGNTYLSWLQQRPGQPPRLLIYKTFKRLSGVPDRFSGSGAGTDFTLKISRVEAEDVGVYYCLQSTQFPLTFGGGTKVEIK
# modifications: peptides N-terminally acetylated and C-terminally amidated
# B2: CL-510487 (antibody, V domains shown)
# VH: QVQLEESGGGVVQPGRSLRLSCTATGFTFSNYGMHWVRQAPGRGLEWVGVIWYDGSNKFYVDSVKGRFTISRDNSKNTLYLQMNSLRAEDTAVYYCARDGGYYGSGSYWWFDSWGQGTLVTVSS
# VL: DIQMTQSPSTLSASVGDRVTITCRASQSISSWLAWYQQKPGKAPKLLIYKASSLERGVPSRFSGSGSGTEFTLTISSLQPDDFATYYCQQYNRYCSFGQGTKLEIK
# modifications: peptides N-terminally acetylated and C-terminally amidated
# B3: CL-513617 (antibody, V domains shown)
# VH: QVQLVESGGGVVQPGRSLRLSCAASGFIFSNYGMYWVRQTPDKGLEWVALIWYDGGNKFYSDSVKGRFTVSRDNSKNTLYLQMNSLRDEDTALYYCARAGYFYGSGSSLDKWGQGTLVTVSS
# VL: B2 VL with T20S, S31I, R56S, T72S, C95W, S96T, L103V
# modifications: peptides N-terminally acetylated and C-terminally amidated
# B4: CL-464181 (antibody, V domains shown)
# VH: QVQLVESGGGAVQAGTSLRLSCAASGFSFSYNGMHWVRQGPGKGLEWVAIIWYDGGNKFYADSVKGRFTISRDNSKKMLYLQMNRLRAEDTAVYYCARAWNFADNKYSMDVWGQGTTVTVSA
# VL: B2 VL with S31C, K45Q, R56S, N92Y, R93I, C95W, S96T, L103V, E104D
# modifications: peptides N-terminally acetylated and C-terminally amidated
# B5: CL-444653 (antibody, V domains shown)
# VH: QVQLVESGGGVVQPGRSLRLSCTASGFTFSTYGMHWVRQAPGKGLEWVAIIWYDGGNKFYADSVKGRFTISRDNSKDTLYLQMNSLRAEDTAVYYCAKAWYKVDDKYSMDVWGQGTTVTVSS
# VL: B2 VL with R56S, S77G, N92I, R93N, C95W, S96T, L103V
# modifications: peptides N-terminally acetylated and C-terminally amidated
# B6: CL-437092 (antibody, V domains shown)
# VH: QVQLVESGGGVVQPGGSLRLSCAASGFTLSSFGIHWVRQAPGKGLEWVALIWHDGSMKYYADSVKGRFTISRDNSKNTVDIQMNSLRVEDTAVYYCARPGIGSPGDHYTMDVWGHGTTVTVSS
# VL: not shown
# modifications: peptides N-terminally acetylated and C-terminally amidated
# B7: CL-441816 (antibody, V domains shown)
# VH: QEQLVESGGGVVQPGRSLRLSCATSGFTFSTYGLHWVRQSPGKGLEWVTVIWYDGSNKFYADSVKGRFTISRDNSKNTLYLQMNSLRAEDTAVYYCARALYSSRWYGAFDIWGQGTMVTVSS
# VL: QSVLTQPPSVSGAPGQRVTISCTGSSSNIGAGYDVHWYQLLPGTAPKLLIYGNSNRPSGVPDRFSGSKSGTSASLAITGLQAEDEADYYCQSYIRSLSGSVFGGGTKLTVL
# modifications: peptides N-terminally acetylated and C-terminally amidated
# Biological target: PfCSP full length (Plasmodium falciparum (isolate NF54), UniProt P19597)
# Assay: ELISA AUC
# Sequence of PfCSP full length (P19597 20-375): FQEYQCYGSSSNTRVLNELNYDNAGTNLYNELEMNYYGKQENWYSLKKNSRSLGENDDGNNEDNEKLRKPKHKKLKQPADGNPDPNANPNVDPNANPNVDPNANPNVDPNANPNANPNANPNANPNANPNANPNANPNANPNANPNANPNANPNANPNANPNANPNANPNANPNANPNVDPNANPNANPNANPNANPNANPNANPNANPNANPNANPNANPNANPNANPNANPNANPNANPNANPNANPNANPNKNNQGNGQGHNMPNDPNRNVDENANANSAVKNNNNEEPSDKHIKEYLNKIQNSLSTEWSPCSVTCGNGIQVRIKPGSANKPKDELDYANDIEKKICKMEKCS
row,Binder,binding score
1,B1,1.75
2,B2,1.83
3,B3,2.59
4,B4,2.4
5,B5,2.3
6,B6,2.5
7,B7,2.4
